Patent US20250326848A1 (SHANGHAI HENLIUS BIOTECH, published 2025)

Key:
[1] = target: T1, human CD47 on primary human platelets (human, UniProt Q08722 19-323); experiment: FACS, binding to primary human platelets, donor 2
T1 construct: whole, on cells

[2] = target: T1, human CD47 on primary human platelets; experiment: FACS, binding to primary human platelets, donor1

B1: M1 #21, anti-CD47 antibody (WO2022063316A1) (antibody, V domains shown)
VH: QVQLQQWGAGLLKPSETLSLTCAVYGGSFSGYYWSWIRQPPGKGLEWIGEINQSGSTNYNPSLKSRVTISVDTSKNQFSLRLSSVTAADTAMYYCARFTGRPYYGMDVWGQGTTVTVSS
VL: SYELTQPPSVSATPGQRVTISCSGSESNIGSHKVKWYQQFAGAAPRLLIHGNDQRFSGVPDRFSGSKSGTSASLAISGLQSEDEADYYCAAWDDSLYGRVFGGGTKLTVL
[1]
  EC50 (read off the curve): ~0.3 nM
[2]
  EC50 (read off the curve): ~0.7 nM
